Measured values published in patent US9603922B2, “Modulation of NKT cell activity with antigen-loaded CD1d molecules” (VACCINEX, INC., priority 2007, dated 2017).

B1: αGalCer/sCD1d: soluble monomeric mouse β2m-CD1d, His-tagged, loaded with αGalCer (protein)
chain: IQKTPQIQVYSRHPPENGKPNILNCYVTQFHPPHIEIQMLKNGKKIPKVEMSDMSFSKDWSFYILAHTEFTPTETDTYACRVKHASMAEPKTVYWDRDMGGGGSGGSGSGGGSEAQQKNYTFRCLQMSSFANRSWSRTDSVVWLGDLQTHRWSNDSATISFTKPWSQGKLSNQQWEKLQHMFQVYRVSFTRDIQELVKMMSPKEDYPIEIQLSAGCEMYPGNASESFLHVAFQGKYVVRFWGTSWQTVPGAPSWLDLPIKVLNADQGTSATVQMLLNDTCPLFVRGLLEAGKSDLEKQEKPVAWLSSVPSSADGHRQLVCHVSGFYPKPVWVMWMRGDQEQQGTHRGDFLPNADETWYLQATLDVEAGEEAGLACRVKHSSLGGQDIILYWSSGSGGHHHHHH

Columns and labels:
[1] = system: liver and spleen iNKT cells; test: Intracellular cytokine staining of liver and spleen NKT cells after repeated i.v. injections; parameters: species or system mouse; conditions: after 5 to 6 i.v. injections every three days; ex vivo and in vitro rechallenge
Experimental: FIG. 2: a Sustained IFNγ production by liver and spleen iNKT cells after several injections of CD1d/anti-HER2 fusion. Liver and spleen lymphocytes were isolated 20 minutes after the sixth injection of either PBS (control, white bar), αGalCer 0.4 μg (grey bar), or αGalCer/CD1d-anti-HER2 fusion protein 40 μg (black bar) and cultured for 1 hour in presence of GOLGI PLUG™ reagent. NKT cells were then stained with anti NK1.1-PE and anti CD3-FITC antibodies, fixed and stained for intracellular IFNγ with anti IFNγ-APC. […] Liver lymphocytes were isolated after 5 injections i.v. of either PBS (Control), αGalCer, αGalCer/CD1d-anti-HER2 fusion protein (Fusion) or αGalCer/sCD1d (sCD1d) and stimulated in vitro for 6 hours in presence of GOLGI PLUG™ as indicated. […]
Isolation of liver, lung and spleen lymphocytes. […] After two washings, cells were either re-challenged or directly analyzed by fluorescence cytometry. […]
Sustained production of IFNγ after repeated i.v. injections: cytokine production was tested by IntraCellular Cytokine Staining (ICCS). […] After fixation and permeabilization with CYTOFIX/CYTOPERM™ (BD), intracellular IFNγ was detected with an APC-labeled anti-IFNγ monoclonal antibody. Cells were analyzed by flow cytometry on a FACS Calibur ([…]™ Software; BD). […]

liver NK cells = test: Transactivation of NK cells: liver NK1.1+ CD3- cells after single injection; type: in vivo, mouse; conditions: 20 hours after single i.p. injection
Text: (§1) Cells were stained with anti NK1.1-PE and anti CD3-FITC and analysed by flow cytometry. NK cells are reported as NK1.1 positive/CD3 negative population. b c Induction of DC maturation and T cell proliferation by αGalCer/sCD1d activated NKT cells in vivo. Splenocytes were isolated after five treatments i.v. with either PBS (control), αGalCer, or αGalCer/sCD1d and cultured for 4 days with GM-CSF and then 3 more days with either PBS (control, white bars), αGalCer (grey bars), or αGalCer/sCD1d (sCD1d, black bars). Cells were then stained with anti CD11c-FITC and biotinylated anti CD40 and Streptavidin-PE to detect double positive mature DCs (c), or with anti NK1.1-PE and anti CD3-FITC to detect CD3 single positive T cells (d) by flow cytometry.
(§2) In absence of a specific antigen: Several reports have described the capacity of iNKT cells to transactivate NK, DC and T cells upon activation with free αGalCer or αGalCer-pulsed dendritic cells (Nieda, M., et al. Blood 103:383-389 (2004); Hermans, I. F., et al. J Immunol 171:5140-5147 (2003); Smyth, M. J., et al. J Exp Med 201:1973-1985 (2005)). […] Markers for DC maturation were also analyzed after 5 days in vitro culture of splenocytes isolated at the end of a systemic treatment, as described in Example 1. […]

liver iNKT cells = test: InvTCR downmodulation: disappearance of liver iNKT cells after single i.p. injection; type: in vivo, mouse; conditions: 20 hours after single i.p. injection; αGalCer 5 μg, sCD1d 20 μg, fusion 40 μg
Experimental: Frequency of iNKT cells was measured by flow cytometry using CD1d-Tetramer-EXTRAVIDIN®-PE and anti CD3 FITC.
Generation of CD1d tetramer. For this purpose, the soluble β2m-CD1d molecule was modified at the C-terminus by the addition of a cysteine after the stretch of histidine residues. After a mild reduction with 0.5 mM β-mercaptoethanol for 30 min at 30C and purification on a PD10 desalting column, the pure recombinant protein was biotinylated on the cystein residue by the chemical coupling of a biotin-maleimide linker (EZ-linked BM, Pierce) in 2M excess overnight at RT. The excess of linker was removed by gel filtration on a SUPERDEX™S200 column (Pharmacia Biotech). The biotinylated CD1d was loaded with αGalCer as described above and was tetramerized on EXTRAVIDIN®-PE (Sigma) and resulting complex was used at 5 μg/ml for NKT cell staining.
Isolation of liver, lung and spleen lymphocytes. Mouse livers and lungs were homogenized with 100 μm strainer and lymphocytes were isolated using a PERCOLL™ density gradient (Amersham Biosciences). After two washings, cells were either re-challenged or directly analyzed by fluorescence cytometry. Spleens were homogenized with a 70 μm strainer, debris were eliminated by spontaneous sedimentation and splenocytes were recovered by centrifugation. […]

[2] = system: splenocytes, CD3+ T cells; test: Conventional T cells (CD3+) in splenocyte cultures of treated mice; type: cell-based, mouse; conditions: for Conventional T cell population of CD3+ cells, in words: in vitro stimulation of splenocyte cultures; for Percentage of CD3+ cells of total spleen cells: in vitro stimulation, 7% without stimulation
Text: as §1
In absence of a specific antigen: Several reports have described the capacity of iNKT cells to transactivate NK, DC and T cells upon activation with free αGalCer or αGalCer-pulsed dendritic cells (Nieda, M., et al. Blood 103:383-389 (2004); Hermans, I. F., et al. J Immunol 171:5140-5147 (2003); Smyth, M. J., et al. J Exp Med 201:1973-1985 (2005)). […] Regarding NK cells, their frequency indeed increased after a single injection of free αGalCer or of αGalCer/sCD1d with or without anti HER2, as shown by the increase of the NK1.1^+ CD3^− cell population (FIG. 7a). Markers for DC maturation were also analyzed after 5 days in vitro culture of splenocytes isolated at the end of a systemic treatment, as described in Example 1. […] From 7% of total spleen cells without stimulation, percentage of CD3^+ cells increased to 17, 27 and 30%, respectively in naïve, αGalCer and αGalCer/sCD1d treated mice.

[3] = system: splenocytes, CD11c+ CD40+ DC; test: DC maturation (CD11c+ CD40+) in splenocyte cultures of treated mice; type: cell-based, mouse; conditions: in vitro stimulation of splenocytes isolated after systemic treatment
Text: as §1, §2

Molecule | IFNγ production by iNKT cells [1] | NK cell frequency (NK1.1+ CD3- population) (liver NK cells) | inv TCR downmodulation / disappearance of liver iNKT cells (liver iNKT cells) | Conventional T cell population of CD3+ cells, in words [2] | Percentage of CD11c+ CD40+ double positive cells [3] | Percentage of CD3+ cells of total spleen cells ([2]; splenocytes of naïve mice) [%] | Percentage of CD3+ cells of total spleen cells ([2]; splenocytes of αGalCer treated mice) [%] | Percentage of CD3+ cells of total spleen cells ([2]; splenocytes of αGalCer/sCD1d treated mice) [%]
CCCCCCCCCCCCCCCCCCCCCCCCCC(=O)N[C@@H](CO[C@H]1O[C@H](CO)[C@H](O)[C@H](O)[C@H]1O)[C@H](O)[C@H](O)CCCCCCCCCCCCCC [αGalCer, α-galactosylceramide, reference compound] | only active in naïve (PBS control) mice and has no more effect in αGalCer-treated mice | increased | inv TCR downmodulation occurred | no significant effect | had no effect in any of the mice |  |  | 
B1 | stimulate iNKT to produce IFNγ following repeated in vivo stimulation with the same material | increased | transient disappearance of liver iNKT cells | significantly increased | increased | 17 | 27 | 30
